Measurements published in patent US9745384B2, “Peptides useful for modulating histone demethylase function” (The Brigham and Women's Hospital, Inc., priority 2012, dated 2017).
Ends that are not written are not given here.

Legend:
[1] = system: CCND1 and CCNE1 expression; experiment: CCND1 and CCNE1 expression in breast cancer cells; assay type: cell-based; conditions: overexpression in cells (FIG. 25C)
Excerpt: We first established stable MDA-MB-231 cell lines that express similar levels of the mutant or the wild-type full-length NPAC from cDNAs introduced with silent mutations and resistant to NPAC shRNA (data not shown). […] Thus, mutation of the LSD2-interacting residues F218, L219 and L291 of NPAC can disrupt LSD2 and NPAC functions in vivo.
We next examined if it is possible to use a small molecule to manipulate the interaction between NPAC and LSD2, thus affecting target gene expression. We have shown that a short mutant NPAC peptide (residues 214-225) can interact with LSD2 with high affinity, however, lost its cofactor activity. NPAC214-225.F217A is expected to be able to competitive inhibit the interaction between endogenous NPAC and LSD2, without stimulating LSD2 demethylase activity (FIG. 25A, right). […] Thus, unable to stimulate the histone demethylase activity of endogenous LSD2, this mutant peptide is a potent inhibitor of LSD2 function by competitively inhibiting LSD2 binding by endogenous NPAC.

LSD1 = LSD1 (Homo sapiens, UniProt O60341); experiment: LSD1-mediated nucleosome demethylation assay; assay type: biochemical; conditions: 2 μg LSD1 with 5 μg cofactor protein
Method: FIG. 7A depicts the determination of the threshold dosage of purified LSD2 required for nucleosomal H3K4 demethylation. 2 μg of nucleosomes purified from HeLa were incubated with various amount of His-LSD2 proteins for 2 hours at 30° C. The demethylation reactions were analyzed by immunoblotting using indicated antibodies. […] 2 μg LSD1 in combination with 5 μg purified NPAC or CoREST protein was used for histone demethylase assays. […] Transfected cells are marked by arrows; cells shown significant reduction of H3K4me1 are marked by dotted circles. […] In contrast, coexpression of LSD2 and NPAC induces obvious global decrease of H3K4me1. […] FIG. 7D depicts immunofluorescence analyses of H3K9me2 demethylation in cells coexpressing LSD2 and full-length NPAC.

LSD2 [2] = biological target: T1, LSD2 (Homo sapiens, UniProt Q8NB78); experiment: H3K4me2 peptide demethylation assay (MALDI-TOF); assay type: biochemical; conditions: H3K4me2 peptide residues 1-21
T1 construct: 0.15 μM or 1.2 μM purified LSD2 (residues 51-822); His6 (cleaved yes); made in house; host or cells: Sf9 insect cells (baculovirus)
T1 sequence (Q8NB78 51-822): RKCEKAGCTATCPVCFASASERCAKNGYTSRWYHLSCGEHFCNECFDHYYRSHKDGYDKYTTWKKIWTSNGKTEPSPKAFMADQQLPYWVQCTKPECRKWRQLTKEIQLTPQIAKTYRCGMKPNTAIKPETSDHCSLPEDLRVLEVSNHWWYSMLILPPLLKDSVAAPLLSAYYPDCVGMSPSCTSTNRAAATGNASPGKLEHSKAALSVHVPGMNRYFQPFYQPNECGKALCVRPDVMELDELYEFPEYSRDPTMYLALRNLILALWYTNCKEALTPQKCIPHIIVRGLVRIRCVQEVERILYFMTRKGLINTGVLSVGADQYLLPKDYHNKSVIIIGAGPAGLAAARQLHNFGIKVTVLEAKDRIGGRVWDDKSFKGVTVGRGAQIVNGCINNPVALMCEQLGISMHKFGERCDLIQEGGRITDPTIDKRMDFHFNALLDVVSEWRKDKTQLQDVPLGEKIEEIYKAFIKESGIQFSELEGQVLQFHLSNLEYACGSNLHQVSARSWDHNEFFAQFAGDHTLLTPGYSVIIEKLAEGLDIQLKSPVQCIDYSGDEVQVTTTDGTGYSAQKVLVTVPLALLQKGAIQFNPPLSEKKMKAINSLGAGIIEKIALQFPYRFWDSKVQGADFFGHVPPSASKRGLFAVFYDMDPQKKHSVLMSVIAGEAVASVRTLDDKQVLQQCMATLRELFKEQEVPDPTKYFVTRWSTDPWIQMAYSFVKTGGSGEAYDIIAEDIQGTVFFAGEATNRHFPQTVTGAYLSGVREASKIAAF
Method: FIGS. 12A-12F depict analysis of LSD2 demethylation activity and mutational analysis. […] Demethylation products were analyzed by MALDI-TOF mass spectrometry. 0.15 μM LSD2 can efficiently demethylate the longer H3K4me2 peptide (1-21), but has no detectable activity on the shorter histone peptide (1-15), demethylation of which requires high concentration (1.2 μM) of LSD2. […] It indicates the importance of histone residue 16-21 to LSD2 enzymatic activity and NPAC cofactor activity, supporting our model that NPAC assists enzyme-substrate interactions by creating a new binding site for H3 L20 in the LSD2-NPAC complex. FIG. 12C depicts LSD2 demethylation and NPAC cofactor activity on longer H3K4me2 peptide (1-44). 2 μg H3K4me2 peptide (1-44) were incubated with 0.8 μg GST-LSD2 (1-822) and 2 μg wild-type or F217A full-length GST-NPAC proteins in 100 μl demethylation buffer (50 mM Tris-HCl pH 8.1, 1 mM NAD^+, 0.1 Unit formaldehyde dehydrogenase) at 30° C. for 2 hours. LSD2 alone can efficiently demethylate di-methyl H3K4 of the long peptides, converting large majority of the substrate to H3K4me1. Wild-type NPAC protein can efficiently stimulate LSD2 demethylation, producing unmethylated H3K4. F217A mutation impairs NPAC cofactor activity as expected, showing little stimulatory effect if any. To compare demethylation efficiency, 1.2 μg bio-H3K4me2 peptide (H3 residue 1-21, equal molar ratio to 2 ug H3K4me2 1-44 peptide in above assays) was demethylated by LSD2 under identical conditions (bottom panel). […] The cofactor activity of wild-type NPAC was readily detected under the same conditions. […] Importantly, the demethylation of nucleosomal H3K4me2 was much more efficient in the presence of wild-type NPAC under same conditions (comparing lane 3 verse 4, and 8 verse 9). It is noted that no obvious cofactor effect of F217A peptide or linker regions was detected in nucleosome and peptide demethylation assays (FIG. 6E and data not shown). FIG. 12F depicts Coomassie staining of NPAC proteins used in histone demethylase assays. FIG. 12F discloses “His6” as SEQ ID NO: 75.
Histone peptides are purchased from Millipore, or custom synthesized. The purity of all peptides are >95% as determined by HPLC and mass spectrometry. In vitro histone demethylase activity assays were performed as described (Shi et al., 2004). Briefly, purified LSD2 and NPAC derived peptides or proteins were incubated with 50 μM H3K4me2 peptides (residues 1-21) in 50 mM Tris-HCl, pH 8.5, 50 mM KCl, 5 mM MgCl2, 5% glycerol at 37° C. for 30 min. The products were desalted through a C18 Ziptip (Millipore) and analyzed on a MALDI-TOF micro MX mass spectrometer (ABI 4700, Applied Biosystems). The laser intensity was kept constant for all of the samples. All MS data were processed using Data Explorer 4.5 (Applied Biosystems). […]

His-LSD2 = biological target: T2, His-LSD2 (Homo sapiens, UniProt Q8NB78); experiment: Nucleosome demethylation assay (NPAC cofactor activity for LSD2, immunoblot); assay type: biochemical
T2 construct: typically 0.5 μg full-length His-LSD2; made in house; host or cells: Sf9 insect cells
T2 sequence (Q8NB78 1-822): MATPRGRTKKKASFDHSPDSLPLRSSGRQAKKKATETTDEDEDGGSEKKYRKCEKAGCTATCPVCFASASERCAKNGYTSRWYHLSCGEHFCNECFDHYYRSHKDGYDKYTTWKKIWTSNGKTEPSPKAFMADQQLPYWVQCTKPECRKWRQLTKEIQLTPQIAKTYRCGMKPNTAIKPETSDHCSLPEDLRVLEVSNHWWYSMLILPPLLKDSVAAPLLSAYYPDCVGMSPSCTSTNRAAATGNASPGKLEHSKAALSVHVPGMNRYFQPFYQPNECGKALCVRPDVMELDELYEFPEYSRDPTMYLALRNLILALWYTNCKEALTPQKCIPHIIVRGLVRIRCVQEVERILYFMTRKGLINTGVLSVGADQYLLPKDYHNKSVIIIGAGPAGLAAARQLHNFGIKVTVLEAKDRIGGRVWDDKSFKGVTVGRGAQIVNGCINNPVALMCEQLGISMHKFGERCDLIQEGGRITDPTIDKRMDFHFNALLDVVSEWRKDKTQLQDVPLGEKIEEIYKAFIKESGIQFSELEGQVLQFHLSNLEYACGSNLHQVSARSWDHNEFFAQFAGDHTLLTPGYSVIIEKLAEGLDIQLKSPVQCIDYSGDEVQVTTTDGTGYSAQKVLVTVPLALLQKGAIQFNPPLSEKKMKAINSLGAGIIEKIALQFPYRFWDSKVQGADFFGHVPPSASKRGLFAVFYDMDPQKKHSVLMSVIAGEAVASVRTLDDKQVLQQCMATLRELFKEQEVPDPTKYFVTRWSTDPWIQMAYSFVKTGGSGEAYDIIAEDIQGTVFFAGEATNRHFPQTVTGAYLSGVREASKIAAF
Method: For nucleosome demethylation assays, typically 0.5 μg full-length His-LSD2, 1 μg NPAC protein or peptides, and 2 μg nucleosomes purified from HeLa were used, and demethylation efficiency was analyzed by SDS-PAGE electrophoresis and immunoblot using methylation specific anti-histone H3 antibodies as previously described (Shi et al. 2004).

LSD2 [3] = biological target: T3, LSD2 (Homo sapiens, UniProt Q8NB78); experiment: H3K4me2 peptide demethylation assay (MALDI-TOF); assay type: biochemical; parameters: 0.15 μM or 1.2 μM purified LSD2 (residues 51-822); His6 (cleaved yes); made in house; host or cells: Sf9 insect cells (baculovirus); conditions: longer H3K4me2 peptide residues 1-44
T3 sequence (Q8NB78 1-822): T2 sequence (Q8NB78 1-822)
Method: FIGS. 12A-12F depict analysis of LSD2 demethylation activity and mutational analysis. […] Demethylation products were analyzed by MALDI-TOF mass spectrometry. 0.15 μM LSD2 can efficiently demethylate the longer H3K4me2 peptide (1-21), but has no detectable activity on the shorter histone peptide (1-15), demethylation of which requires high concentration (1.2 μM) of LSD2. […] It indicates the importance of histone residue 16-21 to LSD2 enzymatic activity and NPAC cofactor activity, supporting our model that NPAC assists enzyme-substrate interactions by creating a new binding site for H3 L20 in the LSD2-NPAC complex. FIG. 12C depicts LSD2 demethylation and NPAC cofactor activity on longer H3K4me2 peptide (1-44). […] The cofactor activity of wild-type NPAC was readily detected under the same conditions. […] It is noted that no obvious cofactor effect of F217A peptide or linker regions was detected in nucleosome and peptide demethylation assays (FIG. 6E and data not shown). […]
Histone peptides are purchased from Millipore, or custom synthesized. The purity of all peptides are >95% as determined by HPLC and mass spectrometry. […] The products were desalted through a C18 Ziptip (Millipore) and analyzed on a MALDI-TOF micro MX mass spectrometer (ABI 4700, Applied Biosystems). […]

GFP-NPAC214-225.F217A: GFP fusion of mutant NPAC peptide (residues 214-225) F217A, overexpressed in cells ({GFP}-DPHAHHFLLSQT; UniProt Q49A26 214-225, looked up, variant F217A)
CCND1 and CCNE1 expression on ectopic expression of the peptide [1]: consistently down regulates CCND1 and CCNE1 expression | CCND1 and CCNE1 expression on ectopic expression of the peptide ([1]; listed as NPAC.214-215.F217A peptide): down regulates CCND1 and CCNE1 expression

B1: linker region of NPAC: NPAC linker region, residues 152-252 or 152-268 (protein)
chain: SERGSKSPLKRAQEQSPRKRGRPPKDEKDLTIPESSTVKGMMAGPMAAFKWQPTASEPVKDADPHFHHFLLSQTEKPAVCYQAITKKLKICEEETGSTSIQ
modifications: left off: a dimerising Fc or GST
Stimulation of LSD1 nucleosome demethylation (LSD1): failed to stimulate LSD1 demethylation of nucleosomes | Cofactor activity: stimulation of LSD2 demethylation of H3K4me2 peptide (LSD2 [2]): strong cofactor activity for LSD2

B2: full-length NPAC F217A protein: full-length NPAC protein with F217A mutation (protein, UniProt Q49A26 1-553, looked up, variant F217A)
chain: MAAVSLRLGDLVWGKLGRYPPWPGKIVNPPKDLKKPRGKKCFFVKFFGTEDHAWIKVEQLKPYHAHKEEMIKINKGKRFQQAVDAVEEFLRRAKGKDQTSSHNSSDDKNRRNSSEERSRPNSGDEKRKLSLSEGKVKKNMGEGKKRVSSGSSERGSKSPLKRAQEQSPRKRGRPPKDEKDLTIPESSTVKGMMAGPMAAFKWQPTASEPVKDADPHAHHFLLSQTEKPAVCYQAITKKLKICEEETGSTSIQAADSTAVNGSITPTDKKIGFLGLGLMGSGIVSNLLKMGHTVTVWNRTAEKCDLFIQEGARLGRTPAEVVSTCDITFACVSDPKAAKDLVLGPSGVLQGIRPGKCYVDMSTVDADTVTELAQVIVSRGGRFLEAPVSGNQQLSNDGMLVILAAGDRGLYEDCSSCFQAMGKTSFFLGEVGNAAKMMLIVNMVQGSFMATIAEGLTLAQVTGQSQQTLLDILNQGQLASIFLDQKCQNILQGNFKPDFYLKYIQKDLRLAIALGDAVNHPTPMAAAANEVYKRAKALDQSDNDMSAVYRAYIH
modifications: full-length
notes: full-length NPAC protein with F217A mutation
Cofactor activity on nucleosomes when more NPAC and LSD2 proteins were used (His-LSD2; more NPAC and LSD2 than threshold assay (FIG. 12E)): residual stimulatory activity | Cofactor activity: stimulation of LSD2 demethylation of nucleosomal H3K4me2 (His-LSD2; threshold dosage of His-LSD2, nucleosomes purified from HeLa): didn't detect cofactor activity | Cofactor activity: stimulation of LSD2 demethylation of H3K4me2 peptide (LSD2 [3]): very weak or undetectable
